Measurements as given in patent US6861578B1, “Method for plant protection against insects or nematodes by transformation with a nucleic acid encoding equistatin” (Plant Research International B.V., priority 1997, dated 2005).
Like-named read-outs stand apart in the source and are kept apart here. Where a SMILES comes first, the peptide text is derived from it. [ ]: non-standard residue; d: D form. The star is where a group is joined. Sta = CC(C)C[C@H](N)[C@@H](O)CC(=O)O; Isovaleryl = CC(C)CC(=O)*

How the values were obtained:
[1] = target: proteases in extracts of adult western flower thrips (Frankliniella occidentalis); test: cell-based or functional assay
[2] = tested on: cysteine proteases; conditions: Yamashita and Konagaya (1996); cited from earlier work
[3] = tested on: thrips protease activity; test: Protease activity of adult western flower thrips extract, FITC-hemoglobin; format: biochemical, Frankliniella occidentalis; set-up: inhibition of protease activity: concentration or dose not given beside the values; conditions: for residual protease activity: thrips pH 3.5, equistatin purified from sea anemone; for inhibition of protease activity: thrips, pH 3.5
Experimental: (§1) Adult western flower thrips (Frankliniella occidentalis) and leafmirer flies (Liriomyza trifolii) adult were harvested from a culture maintained on chrysanthemum plants and complete thrips and flies were homogenized in extraction on buffer (200 mM β-alanine-HCl, pH 3.5) in a volume of 5 times the weight of the insects. The buffer pH was at the previously determined pH optimum of protease activity towards hemoglobin. Final instar Colorado potato beetle larvae maintained on potato plants as described in example 5 were checked for gut aspartic protease activity by preparing a total gut extract in pH 3 buffer which is optimal for Colorado potato beetle aspartic proteases (200 mM glycine, pH 3). Guts were homogenized in 100 μl buffer per gut. Third instar western corn rootworm larvae maintained on corn roots were used to remove the guts. Ten guts were homogenized in 100 μl water and spinned twice to remove insoluble material. Two types of buffers were used in the enzymatic assay. One with a pH presumably favoring cysteine proteases (50 mM MES, pH 6.5; 0.6 mg/ml L-cysteine) and one for detecting aspartic proteases (200 mM glycine, pH 3). Supernatants were stored at −20° C.
(§2) 2 μl gut extract was combined with 2 μl inhibitor (2 mM pepstatin in methanol, 4 mM E64 in water, 2 mg/ml recombinant equistatin in water. The concentration of the other proteinaceous inhibitors was not known exactly). Appropriate buffers were added to a final volume of 100 μl. After 15′ preincubation 20 μl substrate (5 mg/ml FITC-hemoglobin) was added and incubated for 30-45 min at 37 C.
(§3) Reaction was stopped by the addition of 100 μl 10% TCA. Tubes were centrifuged and 100 μl supernatant mixed with 100 μl 10 N NaOH was measured on a fluorimeter for the extent of hemoglobin hydrolysis. Measurements were done in duplicate on one (thrips, leafminer and western corn rootworm), or three (Colorado potato beetle) different gut extracts and varied by a maximum of +/−5%.

[4] = tested on: leafminer proteases; test: Protease activity of adult leafminer fly extract, FITC-hemoglobin; format: biochemical, Liriomyza trifolii; conditions: for residual protease activity: leafminer pH 3.5, equistatin purified from sea anemone
Experimental: as §1, §2, §3

[5] = tested on: Colorado potato beetle proteases; test: Protease activity of Colorado potato beetle larval gut extract at pH 3, FITC-hemoglobin; format: biochemical, Leptinotarsa decemlineata; set-up: inhibition of total protease activity / increase of inhibition by addition of equistatin to E64 / increase of inhibition by addition of equistatin to pepstatin: concentration or dose not given beside the values; conditions: for inhibition of total protease activity: Colorado potato beetle, pH3; for residual protease activity: colorado potato beetle pH 3, recombinant equistatin
Experimental: as §1, §2, §3

[6] = tested on: western corn rootworm cysteine and aspartic protease activity; test: Protease activity of western corn rootworm larval gut extract, FITC-hemoglobin; format: biochemical, Diabrotica virgifera; conditions: recombinant equistatin
Experimental: as §1, §2, §3

[7] = target: proteases in extracts of adult leafminer flies (Liriomyza trifolii); test: cell-based or functional assay
[8] = target: potato protease inhibitor-insensitive cysteine proteases of Colorado potato beetle (Leptinotarsa decemlineata) larval gut extracts; test: cell-based or functional assay
[9] = tested on: T1, equistatin, isolated from sea anemone Actinia equina
T1 sequence: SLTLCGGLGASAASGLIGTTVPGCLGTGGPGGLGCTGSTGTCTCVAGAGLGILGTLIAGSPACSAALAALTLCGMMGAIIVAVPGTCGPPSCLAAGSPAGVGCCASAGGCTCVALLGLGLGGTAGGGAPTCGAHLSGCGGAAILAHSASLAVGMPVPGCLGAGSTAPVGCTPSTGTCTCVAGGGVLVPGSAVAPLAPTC

[10] = tested on: tri-peptidil-peptidase and endoprotease activity of Colorado potato beetle larval gut extracts; test: Tri-peptidil-peptidase and endoprotease activity of Colorado potato beetle gut extract, pGlu-Phe-Leu-pNA; format: biochemical, Leptinotarsa decemlineata
Source text: (§4) Guts of final instar Colorado potato beetle larvae reared on methyl jasmonate induced plants were isolated and extracted essentially as described (Bolter and Jongsma, J. Insect Physiol. 41: 1071-1078). In these gut extracts the proteases that are sensitive to the protease inhibitors of potato are already complexed. The residual protease activity is composed of potato protease-inhibitor-insensitive proteases which were induced in response to the methyl jasmonate induced potato inhibitors. These proteases are the proteases that render the beetle larvae insensitive to protease inhibitor defense of the potato plant. Wle tested a broad range of different cysteisie protease inhibitors for activity specifically against these induced potato protease inhibitor-insensitive cysteine protesses. Nearly all of these inhibitors were purified at the Jozef Stefan Institute in Slovenia. Testing their potential against Colorado potato beetle was done using both general protein substrates (azocasein, table 2) as well as specific synthetic substrates (L-Arg-pNA, table 3; pGlu-Phe-Leu-pNA, table 4; Z-Phe-Arg-pNA, table 5; Z-Arg-Arg-pNA, table 6). In specific cases inhibitors were tested at two concentrations, eauimolar and in excess to the protease, in order to obtain an indication of the tightness of the complex. […] Importantly, this class of inhibitors was capable of inhibiting nearly all general cysteine protease activity. The equistatin peptide molecule and a functional derivative thereof were not very active against the aminopeptidase-like cysteine protease activity. […] The best combination of inhibitors for full toxicity against the Colorado potato beetle would therefore be a combination of equistatin or p41 invariant chain fragment and stefin-like inhibitors.

[11] = tested on: amino-peptidase activity of Colorado potato beetle larval gut extracts; test: Amino-peptidase activity of Colorado potato beetle gut extract, L-Arg-pNA; format: biochemical, Leptinotarsa decemlineata
Source text: as §4

[12] = tested on: endoprotease activity of Colorado potato beetle larval gut extracts; test: Narrow spectrum endoprotease activity of Colorado potato beetle gut extract, Z-Arg-Arg-pNA; format: biochemical, Leptinotarsa decemlineata; conditions: excess inhibitor
Source text: as §4

[13] = tested on: Colorado potato beetle larval gut extracts (potato protease inhibitor-insensitive cysteine proteases); test: General proteolytic activity of Colorado potato beetle larval gut extracts, azocasein; format: biochemical, Leptinotarsa decemlineata
Source text: as §4

[14] = tested on: endoprotease activity of Colorado potato beetle larval gut extracts; test: Broad spectrum endoprotease activity of Colorado potato beetle gut extract, Z-Phe-Arg-pNA; format: biochemical, Leptinotarsa decemlineata
Source text: as §4

[15] = target: T2, cathepsin D (Homo sapiens, UniProt P07339); test: steady state inhibition of cathepsin D hydrolysis of chromophoric substrate
[16] = target: T3, papain (UniProt P00784 134-345); test: continuous rate enzyme inhibition assay with papain
T3 construct: also called cysteine proteinase, papain
T3 sequence (looked up): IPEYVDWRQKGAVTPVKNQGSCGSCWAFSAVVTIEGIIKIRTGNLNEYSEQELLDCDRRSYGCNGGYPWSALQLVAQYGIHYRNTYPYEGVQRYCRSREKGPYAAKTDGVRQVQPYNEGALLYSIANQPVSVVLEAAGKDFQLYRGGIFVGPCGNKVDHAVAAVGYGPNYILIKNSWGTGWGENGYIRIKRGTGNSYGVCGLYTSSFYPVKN

[17] = target: T2, cathepsin D; test: steady state inhibition of cathepsin D hydrolysis of chromophoric substrate; remark: listed apart in the source
[18] = target: T3, papain; test: continuous rate enzyme inhibition assay with papain; Ki = kd/ka

bean cystatin
residual protease activity (FITC-hemoglobin), pH 3.5 (% residual activity) [1]: 14

thyroglobulin: protein containing type I repeated thyroglobulin domains [reference compound]
inhibition of cysteine proteases [2]: do not inhibit

CC(C)C[C@H](NC(=O)[C@H]1O[C@@H]1C(=O)O)C(=O)NCCCCN=C(N)N (relative stereo) [E64, N-(L-3-trans carboxyoxiran-22-carbomyl)-L-leucyl-amido-4-guani-dobutane, reference compound]
residual protease activity [3]: 8% | inhibition of protease activity [3]: 92% | inhibition of protease activity ([4]; leafminer): 73% | residual protease activity [4]: 27% | inhibition of total protease activity [5]: 24% | residual protease activity [5]: 76% | residual protease activity ([6]; western corn rootworm pH 3): 35% | residual protease activity ([6]; western corn rootworm pH 6.5): 51%

p41 invariant chain fragment (from UniProt P04233 194-258)
residual protease activity (FITC-hemoglobin), pH 3.5 (% residual activity) [1]: 13 | residual protease activity (FITC-hemoglobin), pH 3.5 (% residual activity) [7]: 43 | residual amino-peptidase activity (L-Arg-pNA), equimolar inhibitor (% of residual activity) [8]: 85 | residual amino-peptidase activity (L-Arg-pNA), excess inhibitor (% of residual activity) [8]: 75 | residual broad spectrum endoprotease activity (Z-Phe-Arg-pNA), equimolar inhibitor (% of residual activity) [8]: 30 | residual broad spectrum endoprotease activity (Z-Phe-Arg-pNA), excess inhibitor (% of residual activity) [8]: 20 | residual general proteolytic activity (azocasein) in excess of inhibitor (% residual activity) [8]: 10 | residual narrow spectrum endoprotease activity (Z-Arg-Arg-pNA), equimolar inhibitor (% of residual activity) [8]: 20 | residual narrow spectrum endoprotease activity (Z-Arg-Arg-pNA), excess inhibitor (% of residual activity) [8]: -5 | residual tri-peptidil-peptidase and endoprotease activity (pGlu-Phe-Leu-pNA), equimolar inhibitor (% of residual activity) [8]: 10 | residual tri-peptidil-peptidase and endoprotease activity (pGlu-Phe-Leu-pNA), excess inhibitor (% of residual activity) [8]: -5

β-trypsin
limited proteolysis, reverse-phase HPLC and N-terminal sequencing [9]: equistatin was found to be a good substrate for trypsin

CC(C)CC(=O)N[C@H](C(=O)N[C@H](C(=O)N[C@@H](CC(C)C)[C@@H](O)CC(=O)N[C@@H](C)C(=O)N[C@@H](CC(C)C)[C@@H](O)CC(=O)O)C(C)C)C(C)C [Pepstatin, reference compound] (Isovaleryl-VV[Sta]A[Sta]-OH)
residual protease activity [3]: 84% | inhibition of protease activity [3]: 16% | residual protease activity [4]: 46% | inhibition of total protease activity [5]: 82% | residual protease activity [5]: 18% | residual protease activity ([6]; western corn rootworm pH 3): 45% | residual protease activity ([6]; western corn rootworm pH 6.5): 58%

B1: human stefin A: Type I cystatin (protein, UniProt P01040 1-98, looked up)
Cystatin-A: MIPGGLSEAKPATPEIQEIVDKVKPQLEEKTNETYGKLEAVQYKTQVVAGTNYYIKVRAGDNKYMHLKVFKSLPGQNEDLVLTGYQVDKNKDDELTGF
% of residual activity, equimolar ([10]; equimolar): 95% | % of residual activity, excess inhibitor ([10]; excess inhibitor): 90% | % of residual activity, equimolar ([11]; equimolar): 60% | % of residual activity, excess inhibitor ([11]; excess inhibitor): 10% | % of residual activity, excess inhibitor [12]: 90% | Residual activity in excess of inhibitor [13]: 90% | % of residual activity, equimolar ([14]; equimolar): 95% | % of residual activity, excess inhibitor ([14]; excess inhibitor): 80%

B2: combined second and third domain of equistatin (eq d-2,3) (protein)
chain: AALTLCGMMGAIIVAVPGTCGPPSCLAAGSPAGVGCCASAGGCTCVALLGLGLGGTAGGGAPTCGAHLSGCGGAAILAHSASLAVGMPVPGCLGAGSTAPVGCTPSTGTCTCVAGGGVLVPGSAVAPLAPTC
Ki [15]: 0.0004 µM | Ki [16]: > 1 µM | Ki [17]: > 0.0006 µM

B3: entactin: protein with domains homologous to type I repeated thyroglobulin domains (protein, UniProt P14543 29-1247, looked up)
Nidogen-1: LSRQELFPFGPGQGDLELEDGDDFVSPALELSGALRFYDRSDIDAVYVTTNGIIATSEPPAKESHPGLFPPTFGAVAPFLADLDTTDGLGKVYYREDLSPSITQRAAECVHRGFPEISFQPSSAVVVTWESVAPYQGPSRDPDQKGKRNTFQAVLASSDSSSYAIFLYPEDGLQFHTTFSKKENNQVPAVVAFSQGSVGFLWKSNGAYNIFANDRESVENLAKSSNSGQQGVWVFEIGSPATTNGVVPADVILGTEDGAEYDDEDEDYDLATTRLGLEDVGTTPFSYKALRRGGADTYSVPSVLSPRRAATERPLGPPTERTRSFQLAVETFHQQHPQVIDVDEVEETGVVFSYNTDSRQTCANNRHQCSVHAECRDYATGFCCSCVAGYTGNGRQCVAEGSPQRVNGKVKGRIFVGSSQVPIVFENTDLHSYVVMNHGRSYTAISTIPETVGYSLLPLAPVGGIIGWMFAVEQDGFKNGFSITGGEFTRQAEVTFVGHPGNLVIKQRFSGIDEHGHLTIDTELEGRVPQIPFGSSVHIEPYTELYHYSTSVITSSSTREYTVTEPERDGASPSRIYTYQWRQTITFQECVHDDSRPALPSTQQLSVDSVFVLYNQEEKILRYALSNSIGPVREGSPDALQNPCYIGTHGCDTNAACRPGPRTQFTCECSIGFRGDGRTCYDIDECSEQPSVCGSHTICNNHPGTFRCECVEGYQFSDEGTCVAVVDQRPINYCETGLHNCDIPQRAQCIYTGGSSYTCSCLPGFSGDGQACQDVDECQPSRCHPDAFCYNTPGSFTCQCKPGYQGDGFRCVPGEVEKTRCQHEREHILGAAGATDPQRPIPPGLFVPECDAHGHYAPTQCHGSTGYCWCVDRDGREVEGTRTRPGMTPPCLSTVAPPIHQGPAVPTAVIPLPPGTHLLFAQTGKIERLPLEGNTMRKTEAKAFLHVPAKVIIGLAFDCVDKMVYWTDITEPSIGRASLHGGEPTTIIRQDLGSPEGIAVDHLGRNIFWTDSNLDRIEVAKLDGTQRRVLFETDLVNPRGIVTDSVRGNLYWTDWNRDNPKIETSYMDGTNRRILVQDDLGLPNGLTFDAFSSQLCWVDAGTNRAECLNPSQPSRRKALEGLQYPFAVTSYGKNLYFTDWKMNSVVALDLAISKETDAFQPHKQTRLYGITTALSQCPQGHNYCSVNNGGCTHLCLATPGSRTCRCPDNTLGVDCIEQK
inhibition of cysteine proteases [2]: do not inhibit

B4: first domain of equistatin (eq d-1) (protein)
chain: SLTLCGGLGASAASGLIGTTVPGCLGTGGPGGLGCTGSTGTCTCVAGAGLGILGTLIAGSPACSAAL
Ki [15]: > 1 µM | Ki [18]: 0.00061 µM | koff [16]: 0.0011 s⁻¹ | kon [16]: 1.8e+06 M⁻¹ s⁻¹ | Ki [17]: 1000 µM
